Test results published in patent US11726088B2, “Sirtuin 4 (SIRT4) lipoamidase activity and uses thereof” (THE TRUSTEES OF PRINCETON UNIVERSITY, priority 2014, dated 2023).
Primed or numbered codes have the meaning given here. Ends that are not written are not given here. * marks the point of attachment. lipoyl″ = O=C(CCCC[C@@H]1CCSS1)*

T1: SIRT4 (Homo sapiens, UniProt Q9Y6E7)
T1 construct: 6xHis (followed by human rhinovirus 3C protease site) (N); made in house; host or cells: E. coli BL21(DE3), co-expressed with GroEL and GroES
T1 sequence (Q9Y6E7 33-314): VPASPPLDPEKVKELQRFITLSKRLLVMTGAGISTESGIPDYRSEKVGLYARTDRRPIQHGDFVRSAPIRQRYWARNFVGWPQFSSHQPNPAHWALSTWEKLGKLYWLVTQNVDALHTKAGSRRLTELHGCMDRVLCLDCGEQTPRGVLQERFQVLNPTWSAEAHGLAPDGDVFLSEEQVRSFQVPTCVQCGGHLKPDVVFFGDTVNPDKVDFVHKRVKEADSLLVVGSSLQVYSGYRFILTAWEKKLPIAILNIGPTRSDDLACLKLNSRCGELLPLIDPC

T2: SIRT3 (Homo sapiens, UniProt Q9NTG7)
T2 construct: purchased Sigma SRP0117-100UG
T2 sequence (Q9NTG7 1-399): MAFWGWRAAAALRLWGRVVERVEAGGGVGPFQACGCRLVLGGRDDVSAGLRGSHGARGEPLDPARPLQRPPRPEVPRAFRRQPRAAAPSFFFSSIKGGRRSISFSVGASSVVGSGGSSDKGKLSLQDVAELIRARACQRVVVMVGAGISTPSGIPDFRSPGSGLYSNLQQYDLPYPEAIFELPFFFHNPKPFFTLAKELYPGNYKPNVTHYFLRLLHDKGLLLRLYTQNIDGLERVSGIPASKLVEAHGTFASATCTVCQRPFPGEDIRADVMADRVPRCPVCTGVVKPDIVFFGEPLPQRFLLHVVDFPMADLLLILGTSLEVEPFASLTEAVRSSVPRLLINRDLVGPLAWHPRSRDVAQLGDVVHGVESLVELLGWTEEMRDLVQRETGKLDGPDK

T3: SIRT5 (Homo sapiens, UniProt Q9NXA8)
T3 construct: purchased Sigma SRP0119-100UG
T3 sequence (Q9NXA8 37-310): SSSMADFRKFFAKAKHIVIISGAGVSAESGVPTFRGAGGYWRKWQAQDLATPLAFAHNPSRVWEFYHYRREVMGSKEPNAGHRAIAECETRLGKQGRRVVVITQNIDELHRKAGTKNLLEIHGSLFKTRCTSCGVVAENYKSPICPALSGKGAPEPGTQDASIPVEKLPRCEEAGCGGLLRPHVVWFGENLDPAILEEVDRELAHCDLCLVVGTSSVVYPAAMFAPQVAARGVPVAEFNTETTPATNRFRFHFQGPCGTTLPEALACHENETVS

B1: PDP1: pyruvate dehydrogenase phosphatase catalytic subunit 1 (protein, UniProt Q9P0J1 72-537, looked up)
[Pyruvate dehydrogenase …: ASTPQKFYLTPPQVNSILKANEYSFKVPEFDGKNVSSILGFDSNQLPANAPIEDRRSAATCLQTRGMLLGVFDGHAGCACSQAVSERLFYYIAVSLLPHETLLEIENAVESGRALLPILQWHKHPNDYFSKEASKLYFNSLRTYWQELIDLNTGESTDIDVKEALINAFKRLDNDISLEAQVGDPNSFLNYLVLRVAFSGATACVAHVDGVDLHVANTGDSRAMLGVQEEDGSWSAVTLSNDHNAQNERELERLKLEHPKSEAKSVVKQDRLLGLLMPFRAFGDVKFKWSIDLQKRVIESGPDQLNDNEYTKFIPPNYHTPPYLTAEPEVTYHRLRPQDKFLVLATDGLWETMHRQDVVRIVGEYLTGMHHQQPIAVGGYKVTLGQMHGLLTERRTKMSSVFEDQNAATHLIRHAVGNNEFGTVDHERLSKMLSLPEELARMYRDDITIIVVQFNSHVVGAYQNQE
B2: SIRT4: N-terminally truncated recombinant human Sirt4 (33-314 of SEQ ID NO: 2) (protein, listed as Homo sapiens)
chain: T1 sequence (Q9Y6E7 33-314)

Tests used:
Format in all cases: biochemical
SIRT4 [1] = biological target: T1, SIRT4; assay: HPLC-based SIRT4 kinetics assays (steady-state, acyl-modified peptide substrates)
Description: Recombinant SIRT4 protein expression and purification. N-terminally truncated human Sirt4 (33-314 of SEQ ID NO: 2) was cloned into a derivative of pET-15b containing a human rhinovirus 3C Protease cleavage site in place of its thrombin cleavage site. 6×His-Sirt4 was co-expressed with GroEL and GroES in BL21(DE3) E. coli in order to promote proper protein folding. Protein was purified using immobilized-metal affinity chromatography (IMAC) followed by anion-exchange chromatography to remove associated folding chaperones. For some experiments the His-tag was removed using 3C protease. Protein was concentrated, snap frozen in N2(l), and stored at −80° C. HPLC-based SIRT4 kinetics assays. SIRT4 kinetic assays were essentially performed as described by others^3,4. Briefly, enzyme reactions (20 μL) were performed in 50 mM Tris, pH 8.0, containing 5 μM recombinant SIRT4 and varying concentrations (0 to 2500 μM) of H3K9- or DLAT-modified peptides with either acetyl-lysine, biotinyl-lysine, or lipoyl-lysine. Reactions were initiated by addition of NAD (1 mM) and incubated at 25° C. for between 30-120 min, depending on substrate-specific reaction rates and to maintain steady-state conditions. Reactions were quenched with formic acid to a final concentration of 0.5% (v/v) and analyzed by HPLC-UV detection (Ultimate 3000 RSLC/VWD-3400). Substrate and product were separated by reverse-phase chromatography (Acclaim PepMap RSLC, 75 μm×15 cm) at 0.75 μL/min. Product concentration was measured by peak integration of A280 signals. Initial reaction velocities were determined in at least duplicate and fit to a modified Briggs-Haldane equation, which substituted kcat×[SIRT4] for Vmax and allowed determination of kinetic parameters, kcat, Km and kcat/Km and their associated error (±SEM), using GraphPad Prism 5. SIRT4's catalytic efficiency towards the various acyl-modified peptide substrates was assessed (Table 1 below).

SIRT4 [2] = biological target: T1, SIRT4; assay: LC-MS-based in vitro peptide deacylation assay; settings: 5 μM SIRT4, 10 uM peptide, with NAD, 1 hr at 37° C.
Description: Recombinant SIRT4 protein expression and purification. N-terminally truncated human Sirt4 (33-314 of SEQ ID NO: 2) was cloned into a derivative of pET-15b containing a human rhinovirus 3C Protease cleavage site in place of its thrombin cleavage site. 6×His-Sirt4 was co-expressed with GroEL and GroES in BL21(DE3) E. coli in order to promote proper protein folding. Protein was purified using immobilized-metal affinity chromatography (IMAC) followed by anion-exchange chromatography to remove associated folding chaperones. For some experiments the His-tag was removed using 3C protease. Protein was concentrated, snap frozen in N2(l), and stored at −80° C.
LC-MS-based in vitro peptide deacylation assay. The ability of SIRT4 to hydrolyze various acyl-lysine modifications was measured using LC-MS. In 20 μL reaction volume, 10 uM peptide (lipoyl-, biotinyl-, or acetyl-lysine) was incubated with increasing concentrations of SIRT4 (0.5 μM, 2.5 μM, and 5 μM), with or without NAD, in 50 mM TrisHCl, pH 8, 137 mM NaCl, 2.7 mM KCl and 1 mM MgCl2, for 1 hr at 37° C. Reactions were quenched with 25 μL of 2% TFA and an internal control peptide was spiked in to monitor for run-to-run variability. Reaction products were desalted, eluted, concentrated and analyzed by nano-LC-MS/MS, as above, but altered LC gradients. A 30 min linear gradient from 4-40% B was used for all peptides, except for lipoyl-lysine biological peptides, which used a 12-70% B linear gradient. Data were imported into Skyline software (version 2.1) to obtain precursor extracted ion chromatographams (XICs) using the following settings: Isotope Count, 3; precursor mass analyzer, Orbitrap; Resolving power, 60,000 @ 400 Th. The retention times of substrate (modified) and product (unmodified) peptides were confirmed by fragmentation spectra and peak integration boundaries were manually inspected. Three biological replicates were analyzed for each reaction.
The lipoamide cofactor bound to E2 (transferase enzymes) is required for dehydrogenase complex activity (FIG. 1b). Given that other mitochondrial SIRTs can hydrolyze various […] group lysine modifications^3,4 and that all PDHC components were present in our SIRT4 isolation, we speculated that E2 dehydrogenase components may be biological substrates of SIRT4, and that SIRT4 may directly hydrolyze the lipoamid modification. To test this we screened the in vitro activity of recombinant SIRT4 against differentially-modified synthetic peptides (FIG. 10). Firstly, SIRT4 activity towards acyl-modified H3K9 peptides (SEQ ID NOs: 3-5) was measured using a liquid-chromatography (LC)-MS-based deacylation assay. SIRT4 was incubated with H3K9 peptides modified with acetyl-lysine (SEQ ID NO: 5), biotinyl-lysine (SEQ ID NO: 4) or lipoyl-lysine (SEQ ID NO: 3), in the presence or absence of NAD. Following reaction, the remaining unreacted substrates and newly generated unmodified peptides were identified and quantified by LC-MS (FIG. 2A, 2G-2I and FIG. 5). […] To compare the relative preference of SIRT4 for these different substrates, we used extracted ion chromatograms to quantify unreacted substrate (S) and product (P) amounts from all reactions, and represented the percentage of unmodified peptide generated (FIG. 2H). […] The relative amount of unmodified product generated using 5 μM SIRT4 was 11% (lipoyl—SEQ ID NO: 3), 3% (biotinyl—SEQ ID NO: 4) and 0.3% (acetyl—[…]) (FIG. 2B and FIG. 2H, H3K9 substrates). […]

SIRT3 = biological target: T2, SIRT3; assay: Steady-state kinetic analysis of SIRT3 with DLAT K259 peptides
SIRT5 = biological target: T3, SIRT5; assay: Kinetic analysis of SIRT5 with DLAT K259 peptides
purified porcine PDH = assay: Immuno-capture activity assay of purified porcine PDH in vitro; settings: PDP1 0.1 μg/μL; recombinant SIRT4 50 μM + NAD 5 mM after PDP1
Procedure: Purified porcine heart PDH pre-incubated at a final concentration of 1 μg/μl (10 and 25 μL reactions for PDH assay and Western blot, respectively) in 1×PDH assay buffer for 10 min at 30° C. containing 2 mM CaCl2), with or without 0.1 μg/μL of pyruvate dehydrogenase phosphatase catalytic subunit 1 (PDP1, Abcam, cat. #ab110357). To reactions that were treated with PDP1, either NAD alone (5 mM), recombinant SIRT4 (50 μM)+NAD (5 mM), or recombinant SIRT4 H161Y (50 μM)+NAD (5 mM) were added and incubated for an additional 1 hr at RT. 10 μL reactions were diluted with 400 μL of 1×PDH assay buffer and 2×200 μL were used to determine PDH activity. For Western blot analysis (25 μl reactions), 5 μg of purified porcine PDH was mixed in 1× reducing LDS sample buffer, heated at 70° C. for 10 min, resolved by SDS-PAGE, and then proteins were transferred to nitrocellulose membranes for detection of total E1α, pS232, pS293, and pS300 (see western immunoblotting above).
To characterize the impact of the observed in vitro activity, we next assessed whether SIRT4 could regulate the activity of PDH. We first used an immuno-capture assay to test the activity of purified porcine PDH in vitro (FIG. 14A). […] Therefore, we speculated that the reduction in activity may result from SIRT4 directly hydrolyzing the DLAT lipoamide.

[3] = SIRT4 enzyme concentration = 5 μM, NAD 1 mM, 25° C.

Row | Molecule | Km (SIRT4 [1]; [3]) | kcat (SIRT4 [1]; [3]) | increase in efficiency compared to H3K9 lipoyl (SIRT4 [1]; another experiment (Table 1)) | increased efficiency compared to H3K9 lipoyl (SIRT4 [1]; first experiment) | efficiency of hydrolysis by SIRT4, fold more than deacetylation of MCD (SIRT4 [1]; versus MCD acetyl) | relative amount of unmodified product generated (SIRT4 [2]) | SIRT3 efficiency, fold lower than for DLAT acetyl (SIRT3) | SIRT3 enzymatic activity (SIRT3) | SIRT5 activity (SIRT5) | activity of purified porcine PDH (purified porcine PDH)
1 | DLAT K259 Lipoyl: synthetic DLAT K259 peptide with lipoyl-lysine (SEQ ID NO: 8) (EIETDK(lipoyl″)ATIGWW) | 239 ± 51 µM | 0.0016 ± 0.0001 s⁻¹ | 3.3 fold | 3.5 fold | ~1270 fold | 33% | 13 fold | some enzymatic activity | no activity was detected | –
2 | B1 | – | – | – | – | – | – | – | – | – | elevated PDH activity
3 | B2 | – | – | – | – | – | – | – | – | – | able to attenuate PDH activity
